Data as given in patent US20190263905A1 (DINONA, published 2019).

B1: recombinant humanized anti-CD66c antibody Protein ID 3058 (Vk8 + VH11) (antibody, human IgG1, V domains shown)
VH: QVQLVQSGAEVKKPGASVKISCKASGYSFTDYTMHWVKQAPGQNLEWIGLINPFGGSTSYAQKFKGRVTMTRDTSTNTAYMELSRLRSDDTAVYYCVRGDPVRHYYALAYWGQGTLVTVSS
VL: DIQMTQSPSTLSASVGDRVTITCRASENVYGTLNWYQRKPGKAPKLLIYGATNLADGMPSRFSGSGSGTEYTLTISSLQPDDFATYYCQNVLSAPYTFGGGTKLEIK
notes: also called hu 3058; #86
B2: recombinant humanized anti-CD66c antibody Protein ID 3007 (Vk7 + VH6) (antibody, human IgG1, V domains shown)
VH: QVQLVQSGAEVKKPGASMKISCKASGYSFTDYTMNWVKQAPGQNLEWIGLINPFHGGTVSNQRFKVKATLTVDVSTNTAYMELSRLRSDDTAVYYCVRGDPVRHYYALAYWGQGTLVTVSS
VL: DIQMTQSPSTLSASVGDRVTITCGASENVYGTLNWYQRKPGKAPKLLIYGATNLADGVPSRFSGSGSGTEYTLTISSLQPDDFATYYCQNVLSAPYTFGGGTKLEIK
notes: also called hu 3007; #43
B3: recombinant humanized anti-CD66c antibody Protein ID 3043 (Vk8 + VH6) (antibody, human IgG1, V domains shown)
VH: QVQLVQSGAEVKKPGASMKISCKASGYSFTDYTMNWVKQAPGQNLEWIGLINPFHGGTVSNQRFKVKATLTVDVSTNTAYMELSRLRSDDTAVYYCVRGDPVRHYYALAYWGQGTLVTVSS
VL: DIQMTQSPSTLSASVGDRVTITCRASENVYGTLNWYQRKPGKAPKLLIYGATNLADGMPSRFSGSGSGTEYTLTISSLQPDDFATYYCQNVLSAPYTFGGGTKLEIK
notes: also called hu 3043; #71
B4: recombinant humanized anti-CD66c antibody Protein ID 2938 (Vk5 + VH7) (antibody, human IgG1, V domains shown)
VH: QVQLVQSGAEVKKPGASMKISCKASGYSFTDYTMNWVRQAPGQGLEWIGLINPFHGGTVSNQRFKVKATLTVDVSTNTAYMELSRLRSDDTAVYYCVRGDPVRHYYALAYWGQGTLVTVSS
VL: DIQMTQSPSTLSASVGDRVTITCGASENVYGTLAWYQRKPGKAPKLLIYGATNLADGVPSRFSGSGSGREYTLTISSLQPDDFATYYCQNVLSAPYTFGGGTKLEIK
notes: also called hu 2938
B5: anti-CD66c chimeric antibody 8F5 (antibody, human IgG1, V domains shown)
VH: EVQLQQSGPELVKPGASMKISCKASGYSFTDYTMNWVKQSHGKNLEWIGLINPFHGGTVSNQRFKVKATLTVDVSSNTAYMELLSLTSDDSAVYYCVRGDPVRHYYALAYWGQGTSVTVSS
VL: DIQMTQSPASLSASVGETVTITCGASENVYGTLNWYQRKQGKSPQLLIYGATNLADGMSSRFSGSGSGRQYSLKISSLHPDDVATYYCQNVLSAPYTFGGGTKLEII
notes: also called chimeric 8F5 antibody; chi 8F5

Legend:
[1] = target: T1, Antigen CD66c (CEACAM6; Sino Biological, Inc.) (UniProt P40199 35-320); experiment: ELISA, coated CEACAM6 100 ng/well, antibody 1.52 ng/ml
T1 construct: Bought antigen coated on the ELISA plate; construct not described; also called CD66c antigen; CECACAM6
T1 sequence (looked up): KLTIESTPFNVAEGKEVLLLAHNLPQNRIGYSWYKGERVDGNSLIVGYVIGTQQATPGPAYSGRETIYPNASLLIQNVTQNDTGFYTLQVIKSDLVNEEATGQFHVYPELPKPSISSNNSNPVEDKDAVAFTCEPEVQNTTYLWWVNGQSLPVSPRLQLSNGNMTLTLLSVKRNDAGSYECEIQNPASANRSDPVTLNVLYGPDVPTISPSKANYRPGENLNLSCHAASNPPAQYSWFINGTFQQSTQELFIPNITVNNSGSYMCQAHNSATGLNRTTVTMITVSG
Procedure: (§1) Antigen CD66c (CEACAM6; Sino Biological, Inc.) and CEACAM1 antigen (Sino Biological, Inc.) were coated on a 96-well plate at 100 ng per well and then blocked. The primary antibody was diluted serially three fold from 10 ug/ml at initial concentration and was bound at 37° C. for 1 hour, and goat anti-Human Ig-HRP conjugate (Jackson ImmunoResearch) as a secondary antibody was diluted 1:10,000 and incubated at 37° C. for 30 minutes. The washing was carried out at three times between each step, and the TMB reaction was performed, stopped with 1N H₂SO₄ solution at the same amount of TMB solution (100 ul) and then OD value was measured at 450 nm.
(§2) As a result of the experiment, the binding affinities to CD66c antigen of the five kinds of recombinant humanized antibodies selected from among 96 kinds of recombinant humanized antibodies are shown in FIG. 4a, Table 12, FIG. 4b and Table 13. FIG. 4a and Table 12 show the binding capacity of the antibodies to CECACAM6 CD66c) antigen, and FIG. 4b and Table 13 are the results for the CEACAM1 (CD66a) antigen.

[2] = target: T1, Antigen CD66c (CEACAM6; Sino …); experiment: ELISA, coated CEACAM6 100 ng/well, antibody 4.57 ng/ml
Procedure: as §1, §2

[3] = target: T2, CEACAM1 antigen (Sino Biological, Inc.) (UniProt P13688 35-428); experiment: ELISA, coated CEACAM1 100 ng/well, antibody 0.17 ng/ml
T2 construct: Bought antigen coated on the ELISA plate; construct not described; also called CEACAM1 (CD66a) antigen; CD66a
T2 sequence (looked up): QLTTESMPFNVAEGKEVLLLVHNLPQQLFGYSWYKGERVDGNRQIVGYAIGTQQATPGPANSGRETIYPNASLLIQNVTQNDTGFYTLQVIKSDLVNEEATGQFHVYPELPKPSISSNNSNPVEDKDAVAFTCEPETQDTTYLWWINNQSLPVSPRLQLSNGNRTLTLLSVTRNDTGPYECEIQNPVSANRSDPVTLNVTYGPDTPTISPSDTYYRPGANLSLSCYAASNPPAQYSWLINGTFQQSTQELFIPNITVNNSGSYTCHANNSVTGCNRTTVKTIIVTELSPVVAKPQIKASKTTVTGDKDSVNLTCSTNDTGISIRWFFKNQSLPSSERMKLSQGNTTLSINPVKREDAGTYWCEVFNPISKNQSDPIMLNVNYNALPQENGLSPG
Procedure: as §1, §2

[4] = target: T2, CEACAM1 antigen (Sino Biological, Inc.); experiment: ELISA, coated CEACAM1 100 ng/well, antibody 0.51 ng/ml
Procedure: as §1, §2

[5] = target: T1, Antigen CD66c (CEACAM6; Sino …); experiment: ELISA, coated CEACAM6 100 ng/well, antibody 41.15 ng/ml
Procedure: as §1, §2

[6] = target: T2, CEACAM1 antigen (Sino Biological, Inc.); experiment: ELISA, coated CEACAM1 100 ng/well, antibody 13.72 ng/ml
Procedure: as §1, §2

[7] = target: T2, CEACAM1 antigen (Sino Biological, Inc.); experiment: ELISA, coated CEACAM1 100 ng/well, antibody 41.15 ng/ml
Procedure: as §1, §2

[8] = target: T2, CEACAM1 antigen (Sino Biological, Inc.); experiment: ELISA, coated CEACAM1 100 ng/well, antibody 123.46 ng/ml
Procedure: as §1, §2

[9] = target: T2, CEACAM1 antigen (Sino Biological, Inc.); experiment: ELISA, coated CEACAM1 100 ng/well, antibody 370.37 ng/ml
Procedure: as §1, §2

[10] = target: T1, Antigen CD66c (CEACAM6; Sino …); experiment: ELISA, coated CEACAM6 100 ng/well, antibody 1111.11 ng/ml
Procedure: as §1, §2

[11] = target: T1, Antigen CD66c (CEACAM6; Sino …); experiment: ELISA, coated CEACAM6 100 ng/well, antibody 3333.33 ng/ml
Procedure: as §1, §2

[12] = target: T1, Antigen CD66c (CEACAM6; Sino …); experiment: ELISA, coated CEACAM6 100 ng/well, antibody 10000.00 ng/ml
Procedure: as §1, §2

[13] = target: T3, CD66c (CEACAM6) on CD66c-positive A549 non-small-cell lung cancer cells (UniProt P40199 35-320, limits assumed); experiment: flow cytometry on A549 cells, relative to chimeric antibody
T3 construct: whole, on cells; also called CD66c antigen; NCA-90
T3 sequence (looked up): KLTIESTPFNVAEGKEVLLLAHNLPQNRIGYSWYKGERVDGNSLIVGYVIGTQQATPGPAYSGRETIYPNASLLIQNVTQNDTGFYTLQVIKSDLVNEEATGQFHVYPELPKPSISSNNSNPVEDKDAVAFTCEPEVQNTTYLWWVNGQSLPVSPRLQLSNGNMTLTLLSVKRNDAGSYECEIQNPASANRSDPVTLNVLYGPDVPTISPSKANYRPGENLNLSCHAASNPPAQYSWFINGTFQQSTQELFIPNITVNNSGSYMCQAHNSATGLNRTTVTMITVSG
Procedure: (§3) Each expressed 96 recombinant humanized antibody was poured and reacted in a test tube containing the same amount ([…]) of CD66c-positive A549 non-small-cell lung cancer cell line at 4° C. for 30 minutes, washed with PBS, and treated with FITC-conjugated goat anti-Human IgG (DiNona Inc, Korea) was added and incubated at 4° C. for 15 minutes. After washing with PBS, the cells were analyzed with a flow cytometer (Stratedigm, S1000EXi) and the results are shown below.
(§4) Among the 96 recombinant humanized antibody candidates, eight were firstly selected based on the degree of expression, the presence of aggregation, and the degree of cell binding (Table 9 and Table 10, FIGS. 3A to 3E).

[14] = target: T3, CD66c (CEACAM6) on CD66c-positive A549 …; experiment: flow cytometry on CD66c-positive A549 cells, mean fluorescence
Procedure: as §3, §4

Binder	OD 450 nm [1] [OD]	OD 450 nm [2] [OD]	OD 450 nm [3] [OD]	OD 450 nm [4] [OD]	OD 450 nm [5] [OD]	OD 450 nm [6] [OD]	OD 450 nm [7] [OD]	OD 450 nm [8] [OD]	OD 450 nm [9] [OD]	OD 450 nm [10] [OD]	OD 450 nm [11] [OD]	OD 450 nm [12] [OD]	% (% gated × mean) [13] [%]	Mean [14]
B1	0.53	0.74	0.04	0.04	1.38	0.05	0.07	0.07	0.12	3.19	3.18	2.87	103	645
B2	0.79	1.02	0.09	0.11	2.17	0.46	0.66	0.82	0.92	3.23	3.24	3.37	88.8	565
B3	0.7	0.91	0.08	0.1	1.73	0.43	0.61	0.7	0.8	2.74	2.95	2.73	105	686
B4	0.48	0.65	0.04	0.05	1.72	0.06	0.07	0.1	0.14	3.16	3.27	3.43	96	611
B5	0.53	0.8	0.08	0.1	2.02	0.51	0.82	0.95	1.13	3.3	3.41	3.17	100	619
